Test [1] deals with dehydrogenase domain (DH) of MtCDH variant R698S (Myriococcum thermophilum).
The target of test [2] is dehydrogenase domain (DH) of MtCDH variant N700S (Myriococcum thermophilum).
For test [3], the target named is dehydrogenase domain (DH) of Myriococcum thermophilum cellobiose dehydrogenase, wild type (Myriococcum thermophilum).
Test [4] addresses dehydrogenase domain (DH) of MtCDH variant W295A (Myriococcum thermophilum).
Test [5] concerns the target dehydrogenase domain (DH) of MtCDH variant N292S (Myriococcum thermophilum).
For test [6], the target named is dehydrogenase domain (DH) of MtCDH variant S298Q (Myriococcum thermophilum).
The target of test [7] is dehydrogenase domain (DH) of MtCDH variant M309R (Myriococcum thermophilum).
The target of test [8] is dehydrogenase domain (DH) of MtCDH variant Y619Q (Myriococcum thermophilum).
Test [9] concerns the target dehydrogenase domain (DH) of MtCDH variant M309A (Myriococcum thermophilum).
The target in test [10] is dehydrogenase domain (DH) of MtCDH variant Y549F (Myriococcum thermophilum).
For test [11], the target named is T1, Neurospora crassa lytic polysaccharide monooxygenase NcLPMO9F (Neurospora crassa) (UniProt Q1K4Q1).
T1 sequence (chain, non-glycosylated; N-terminal histidine not methylated): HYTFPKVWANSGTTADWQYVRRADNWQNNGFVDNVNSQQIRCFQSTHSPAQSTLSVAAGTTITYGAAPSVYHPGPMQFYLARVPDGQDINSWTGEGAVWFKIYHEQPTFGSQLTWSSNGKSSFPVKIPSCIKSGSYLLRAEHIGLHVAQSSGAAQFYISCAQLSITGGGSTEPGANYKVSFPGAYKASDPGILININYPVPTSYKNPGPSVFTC

For test [12], the target named is T1, Neurospora crassa lytic polysaccharide monooxygenase NcLPMO9F (Neurospora crassa). The source holds these as a separate data set.

This note sets out measurements from publication PMC4507011.

On to “cytochrome domain (CYT) of Myriococcum thermophilum cellobiose dehydrogenase (domain or fragment)”, for which the haem b reduction rate kobs (interdomain electron transfer) of 5 μM full-length MtCDH R698S with 25 mM cellobiose, stopped flow at 563 nm, 30 °C, pH 5.0 in test [1] was 0.011 s⁻¹. This molecule also had a haem b reduction rate kobs (interdomain electron transfer) of 5 μM full-length MtCDH N700S with 25 mM cellobiose, stopped flow at 563 nm, 30 °C, pH 5.0 in test [2] of 1.37 s⁻¹. In test [3], this molecule displayed a haem b reduction rate kobs (flavin-to-haem interdomain electron transfer) of 5 μM full-length MtCDH wild type with 25 mM cellobiose, stopped flow at 563 nm, 30 °C, 50 mM sodium citrate pH 5.0 of 0.76 s⁻¹. In test [4], the haem b reduction rate kobs (interdomain electron transfer) of 5 μM full-length MtCDH W295A with 25 mM cellobiose, stopped flow at 563 nm, 30 °C, pH 5.0 was 0.86 s⁻¹. This molecule had a haem b reduction rate kobs (interdomain electron transfer) of 5 μM full-length MtCDH N292S with 25 mM cellobiose, stopped flow at 563 nm, 30 °C, pH 5.0 in test [5] of 0.95 s⁻¹. Moreover, the haem b reduction rate kobs (interdomain electron transfer) of 5 μM full-length MtCDH S298Q with 25 mM cellobiose, stopped flow at 563 nm, 30 °C, pH 5.0 in test [6] turned out to be 0.09 s⁻¹. The molecule also came in with a haem b reduction rate kobs (interdomain electron transfer) of 5 μM full-length MtCDH M309R with 25 mM cellobiose, stopped flow at 563 nm, 30 °C, pH 5.0 in test [7] of 0.088 s⁻¹. In addition, the haem b reduction rate kobs (interdomain electron transfer) of 5 μM full-length MtCDH Y619Q with 25 mM cellobiose, stopped flow at 563 nm, 30 °C, pH 5.0 in test [8] was 0.38 s⁻¹. This molecule showed a haem b reduction rate kobs (interdomain electron transfer) of 5 μM full-length MtCDH M309A with 25 mM cellobiose, stopped flow at 563 nm, 30 °C, pH 5.0 in test [9] of 0.056 s⁻¹. Also, in test [10], the haem b reduction rate kobs (interdomain electron transfer) of 5 μM full-length MtCDH Y549F with 25 mM cellobiose, stopped flow at 563 nm, 30 °C, pH 5.0 came out at 0.76 s⁻¹.

B1: cytochrome domain of Neurospora crassa cellobiose dehydrogenase IIA (separate fragment) (domain or fragment)
chain: QTAPKTFTHPDTGIVFNTWSASDSQTKGGFTVGMALPSNALTTDATEFIGYLECSSAKNGANSGWCGVSLRGAMTNNLLITAWPSDGEVYTNLMFATGYAMPKNYAGDAKITQIASSVNATHFTLVFRCQNCLSWDQDGVTGGISTSNKGAQLGWVQAFPSPGNPTCPTQITLSQHDNGMGQWGAAFDSNIANPSYTAWAAKATKTVTGTCSGPVTTSIAATPVPTGVSFDYIVVGGGAGGIPVADKLSESGKSVLLIEKGFASTGEHGGTLKPEWLNNTSLTRFDVPGLCNQIWKDSDGIACSDTDQMAGCVLGGGTAINAGLWYKPYTKDWDYLFPSGWKGSDIAGATSRALSRIPGTTTPSQDGKRYLQQGFEVLANGLKASGWKEVDSLKDSEQKNRTFSHTSYMYINGERGGPLATYLVSAKKRSNFKLWLNTAVKRVIREGGHITGVEVEAFRNGGYSGIIPVTNTTGRVVLSAGTFGSAKILLRSGIGPKDQLEVVKASADGPTMVSNSSWIDLPVGHNLVDHTNTDTVIQHNNVTFYDFYKAWDNPNTTDMNLYLNGRSGIFAQAAPNIGPLFWEEITGADGIVRQLHWTARVEGSFETPDGYAMTMSQYLGRGATSRGRMTLSPTLNTVVSDLPYLKDPNDKAAVVQGIVNLQKALANVKGLTWAYPSANQTAADFVDKQPVTYQSRRSNHWMGTNKMGTDDGRSGGTAVVDTNTRVYGTDNLYVVDASIFPGVPTTNPTAYIVVAAEHAAAKILAQPANEAVPKWGWCGGPTYTGSQTCQAPYKCEKQNDWYWQCV
Take B1: in test [11], the haem b re-oxidation rate (kobs) of reduced NcCYT (4 μM) mixed with NcLPMO9F (20 μM), stopped flow at 563 nm, 30 °C, 50 mM sodium citrate pH 5.0 (re-oxidation by oxygen alone 0.0007 s^−1) amounted to 67.2 s⁻¹.

B2: dehydrogenase domain of Neurospora crassa cellobiose dehydrogenase IIA (separate fragment) (domain or fragment)
chain: B1 chain
B2: the re-oxidation rate of the FAD cofactor of NcDH (10 μM) in the presence of 50 μM NcLPMO9F, stopped flow at 450 nm (0.0444 s^–1 without LPMO): unchanged, no electron transfer in [12] amounted to 0.0442 s⁻¹.
